Where two headings read alike, the source gives them in different places.
Key:
human C3b = target: T1, human C3b (Homo sapiens, UniProt P01024); assay: SPR (Biacore T100) binding to human C3b; settings: for kd C3b: off-rate; for ka C3b: on-rate
T1 construct: C3b is derived from native C3 and is the larger of two elements formed by the cleavage of C3
Procedure: (§1) The kinetic parameters of the candidates are determined using a surface plasmon resonance (SPR) and Biacore T100 device. C3 and different variants thereof (Table 19) are immobilized as a ligand on a HC30M SPR sensor chip (XanTec bionanalytics, Germany) using EDC/[…] linking chemistry. Five increasing concentrations of each molecule (analyte) are consecutively injected using the single cycle kinetics (SCK) mode to determine the kinetic parameters. Regeneration between the candidates is done with 10 mM glycine*HCl, 2 M NaCl, pH 3.5. The data is fitted to a 1:1 Langmuir binding model and the kinetic parameters of on-rate (ka), off-rate (kd), and affinity […] were determined.

[1] = Storage stability at 150 mg/ml, oligomerization by SE-HPLC; format: physicochemical; settings: decrease in monomeric content versus start
Procedure: Clone I, clone II and clone III are tested for storage stability. Samples are concentrated to 150 mg/ml (Vivaspin20 centrifugal device, 5 kDa MWCO at 3800×g) and stored at 25° C. and 40° C. for up to 4 weeks. Samples are analyzed for oligomerization (SE-HPLC) and chemical degradation (IEX-HPLC). The starting monomeric purity as determined by SE-HPLC was 99.96% for each clone. The starting charge purity, as determined by IEX-HPLC was 98.07%, 97.16% and 96.76%, respectively for clone I, II and III.

Alternative Pathway = assay: WEISLAB Complement system Screen, alternative pathway MAC (C5b-C9) formation; format: biochemical, human; settings: human serum; read-out: IC50 (nM) Alternative Pathway MAC deposition
Procedure: (§2) To identify antibodies that block all 3 complement pathways, antibodies are screened using an enzyme immunoassay for the qualitative determination of functional classical, lectin and alternative complement pathways in human serum using the WEISLAB® Complement system Screen (Svar Life Science AB, Malmö, Sweden).
(§3) To monitor inhibition of the complement system in human serum, the scFv of the invention or the comparator molecules are tested using an enzyme immunoassay for the qualitative determination of functional classical, lectin and alternative complement pathways in human serum using the WEISLAB® Complement system Screen (Svar Life Science AB, Malmö, Sweden), following the supplier's instructions. The amount of C5b-C9 neoantigen generated is proportional to the functional activity of complement pathways. The scFv of the invention and the comparator molecules are tested in a concentration response curve and the IC50 for the inhibition is calculated using the GraphPadPrism software and a non-linear, 4 parameters curve regression.

Classical Pathway (CP) = assay: Hemolytic assay, antibody-sensitized sheep erythrocytes in human serum; format: cell-based; settings: 1% human serum, read-out: IC50 (nM) Classical Pathway Hemolysis
Procedure: Anti-C3 antibody fragments are evaluated for their ability to inhibit hemolysis of antibody-sensitized sheep erythrocytes mediated by Classical Pathway (CP) or Alternative Pathway (AP) activation in human serum. For this, sheep erythrocytes are coated with hemolysin (rabbit anti-sheep antibodies) on the surface to activate the complement system in human serum resulting in C3 activation and subsequent formation of the Membrane Attack Complex (MAC). The MAC assembles on the membrane of sheep erythrocytes leading to cell lysis. The level of hemoglobin released from lysed erythrocytes is measured at OD 414 nm and is proportional to the complement activity present in the serum sample. For determining the ability of anti-C3 molecules to inhibit CP activity, human serum was diluted in GVB++ buffer (Complement technology) for optimal activation of the Classical Pathway (requires calcium and magnesium ions). Serial dilutions of anti-C3 test samples are prepared from this solution with a final concentration of 1% human serum for each datapoint (prior to addition to erythrocytes). The samples are incubated with antibody-sensitized sheep erythrocytes for 1 hour at 37° C. and released hemoglobin is measured in the supernatant after a centrifugation step.

human C3 = human C3 (Homo sapiens, UniProt P01024); assay: SPR (Biacore T100) binding to human C3; settings: for kd C3: off-rate; for ka C3: on-rate
Sequence of human C3 (P01024 23-1663): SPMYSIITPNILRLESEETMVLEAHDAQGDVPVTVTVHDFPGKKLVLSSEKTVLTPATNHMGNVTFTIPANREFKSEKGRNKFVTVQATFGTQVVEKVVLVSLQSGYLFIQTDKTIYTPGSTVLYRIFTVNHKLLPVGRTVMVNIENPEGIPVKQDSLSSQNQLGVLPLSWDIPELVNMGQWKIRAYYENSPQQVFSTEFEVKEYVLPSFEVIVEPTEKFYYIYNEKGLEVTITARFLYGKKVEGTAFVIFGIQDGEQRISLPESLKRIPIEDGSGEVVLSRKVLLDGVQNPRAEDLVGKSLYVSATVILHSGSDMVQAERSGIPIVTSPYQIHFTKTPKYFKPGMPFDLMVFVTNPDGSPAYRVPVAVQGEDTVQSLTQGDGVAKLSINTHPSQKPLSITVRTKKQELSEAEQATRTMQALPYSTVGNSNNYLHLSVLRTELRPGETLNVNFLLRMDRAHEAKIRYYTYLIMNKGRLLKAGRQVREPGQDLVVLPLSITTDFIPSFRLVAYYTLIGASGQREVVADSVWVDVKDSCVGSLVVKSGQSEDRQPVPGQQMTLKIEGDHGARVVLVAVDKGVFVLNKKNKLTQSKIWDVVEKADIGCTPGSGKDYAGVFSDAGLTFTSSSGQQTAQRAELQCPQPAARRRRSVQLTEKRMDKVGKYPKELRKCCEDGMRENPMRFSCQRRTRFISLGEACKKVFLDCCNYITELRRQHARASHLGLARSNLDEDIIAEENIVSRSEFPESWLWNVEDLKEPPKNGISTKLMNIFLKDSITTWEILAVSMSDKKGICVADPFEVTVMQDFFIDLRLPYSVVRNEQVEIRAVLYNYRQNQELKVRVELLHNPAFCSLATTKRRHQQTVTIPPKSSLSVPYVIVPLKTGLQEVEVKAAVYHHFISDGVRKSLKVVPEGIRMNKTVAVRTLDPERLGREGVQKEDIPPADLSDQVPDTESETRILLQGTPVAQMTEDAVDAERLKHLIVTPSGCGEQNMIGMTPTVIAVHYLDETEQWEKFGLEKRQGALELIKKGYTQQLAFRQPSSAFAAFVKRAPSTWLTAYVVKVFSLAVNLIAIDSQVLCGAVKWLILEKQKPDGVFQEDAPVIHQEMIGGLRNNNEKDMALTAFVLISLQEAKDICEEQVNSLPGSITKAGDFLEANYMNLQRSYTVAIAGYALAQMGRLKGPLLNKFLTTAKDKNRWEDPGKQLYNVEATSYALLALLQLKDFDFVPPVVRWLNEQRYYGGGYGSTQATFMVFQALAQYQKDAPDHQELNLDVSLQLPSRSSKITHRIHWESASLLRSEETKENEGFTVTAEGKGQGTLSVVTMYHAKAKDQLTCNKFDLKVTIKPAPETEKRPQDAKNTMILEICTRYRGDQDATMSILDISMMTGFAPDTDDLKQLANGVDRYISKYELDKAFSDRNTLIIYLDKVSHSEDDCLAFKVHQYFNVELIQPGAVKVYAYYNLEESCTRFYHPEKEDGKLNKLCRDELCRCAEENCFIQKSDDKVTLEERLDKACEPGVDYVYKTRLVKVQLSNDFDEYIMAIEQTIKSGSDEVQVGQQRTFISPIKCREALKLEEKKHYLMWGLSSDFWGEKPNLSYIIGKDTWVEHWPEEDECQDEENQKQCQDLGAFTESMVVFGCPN
Procedure: as §1

Lectin Pathway = assay: WEISLAB Complement system Screen, lectin pathway MAC (C5b-C9) formation; format: biochemical, human; settings: human serum; read-out: IC50 (nM) Lectin Pathway MAC deposition
Procedure: as §2, §3

[2] = Table 19, SPR, read-out: Affinity human C3b
[3] = Table 20, SPR, read-out: KD (nM) C3b
[4] = Table 19, SPR, read-out: Affinity human C3
[5] = Table 20, SPR, read-out: KD (nM) C3

T1 sequence (P01024 23-667 limits assumed): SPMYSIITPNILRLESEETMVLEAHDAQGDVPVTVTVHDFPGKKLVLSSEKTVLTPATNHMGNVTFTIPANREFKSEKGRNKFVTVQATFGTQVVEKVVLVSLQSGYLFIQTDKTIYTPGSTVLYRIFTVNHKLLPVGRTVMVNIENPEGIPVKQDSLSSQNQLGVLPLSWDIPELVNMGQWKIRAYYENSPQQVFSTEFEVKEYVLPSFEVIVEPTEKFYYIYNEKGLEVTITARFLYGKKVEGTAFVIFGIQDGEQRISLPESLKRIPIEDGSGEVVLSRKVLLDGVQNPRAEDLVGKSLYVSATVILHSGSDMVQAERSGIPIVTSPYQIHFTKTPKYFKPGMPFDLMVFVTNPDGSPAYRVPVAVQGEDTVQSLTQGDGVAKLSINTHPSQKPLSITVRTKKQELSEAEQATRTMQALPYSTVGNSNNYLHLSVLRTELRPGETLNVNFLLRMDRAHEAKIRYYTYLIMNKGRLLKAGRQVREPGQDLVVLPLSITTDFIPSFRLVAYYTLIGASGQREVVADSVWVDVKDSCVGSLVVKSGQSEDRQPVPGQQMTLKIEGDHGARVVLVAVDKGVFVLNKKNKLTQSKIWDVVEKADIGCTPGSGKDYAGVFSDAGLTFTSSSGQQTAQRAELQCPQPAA
T1 sequence (P01024 749-1663 limits assumed): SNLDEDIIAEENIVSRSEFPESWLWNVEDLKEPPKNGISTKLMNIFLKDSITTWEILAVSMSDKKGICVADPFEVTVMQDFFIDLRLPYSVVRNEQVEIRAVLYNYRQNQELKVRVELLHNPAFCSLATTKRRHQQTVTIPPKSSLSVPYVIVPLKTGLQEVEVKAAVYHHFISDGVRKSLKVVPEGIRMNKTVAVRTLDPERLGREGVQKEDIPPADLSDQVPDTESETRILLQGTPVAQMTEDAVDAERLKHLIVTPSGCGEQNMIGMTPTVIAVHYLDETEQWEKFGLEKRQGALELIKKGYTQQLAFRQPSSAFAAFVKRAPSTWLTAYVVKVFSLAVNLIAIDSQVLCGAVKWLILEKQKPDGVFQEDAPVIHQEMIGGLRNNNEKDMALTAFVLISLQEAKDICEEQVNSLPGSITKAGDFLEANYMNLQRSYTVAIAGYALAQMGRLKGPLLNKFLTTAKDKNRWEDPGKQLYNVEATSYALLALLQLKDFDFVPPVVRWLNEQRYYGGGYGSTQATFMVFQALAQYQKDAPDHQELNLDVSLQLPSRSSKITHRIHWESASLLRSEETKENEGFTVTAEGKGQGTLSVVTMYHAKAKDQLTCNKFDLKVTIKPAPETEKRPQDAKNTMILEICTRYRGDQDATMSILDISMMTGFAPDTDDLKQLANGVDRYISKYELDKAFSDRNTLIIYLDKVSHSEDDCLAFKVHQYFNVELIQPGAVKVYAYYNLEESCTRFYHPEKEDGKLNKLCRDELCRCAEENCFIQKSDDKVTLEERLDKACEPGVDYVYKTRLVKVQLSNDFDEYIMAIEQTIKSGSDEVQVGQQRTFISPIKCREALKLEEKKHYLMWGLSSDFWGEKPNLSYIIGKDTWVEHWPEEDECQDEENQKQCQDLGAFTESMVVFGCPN

Row | Molecule | Kd (human C3b; Table 16, read-out: C3b (Kd)) | Kd (human C3b; [2]) | Kd (human C3b; [3]) | kd C3b (human C3b) | ka C3b (human C3b) | Storage stability, SEC 4 weeks at 25° C. [D %] [1] | Storage stability, SEC 4 weeks at 40° C. [D %] [1] | IC50 (Alternative Pathway) | IC50 (Classical Pathway (CP)) | Kd (human C3; Table 16, read-out: C3 (Kd)) | Kd (human C3; [4]) | Kd (human C3; [5]) | kd C3 (human C3) | ka C3 (human C3) | IC50 (Lectin Pathway)
1 | Clone I: humanized anti-C3 scFv, VH SEQ ID NO: 20, VL SEQ ID NO: 21; scFv SEQ ID NO: 26 or 27 (antibody, V domains shown, VH; VL) VH: QVQLVESGGGSVQPGRSLRLSCAASGFTFSNYAMNWVRQAPGKGLEWVAVISYDGSNKYYADSVKGRFTISRDNSKNTLYLQMNSLRAEDTASYYCARAVGYHHARLDPWGCGTSVTVSS VL: QLVLTQSPSASASLGASVKLTCTLSSAHKTYTIDWYQQQPEKCPRYLMQLKSDGSYTKGSGIPDRFSGSSSGAERYLTISSLQSEDEADYYCGTEGVGGYVFGGGTKLTVLG | 0.14 nM | 0.149 nM | 0.149 nM | 4.8e-05 s⁻¹ | 320000 M⁻¹ s⁻¹ | 0.06 D % | 0.37 D % | 344 nM | 74 nM | 0.16 nM | 0.152 nM | 0.152 nM | 4.7e-05 s⁻¹ | 310000 M⁻¹ s⁻¹ | 67 nM
2 | Clone II: humanized anti-C3 scFv, VH SEQ ID NO: 22, VL SEQ ID NO: 23; scFv SEQ ID NO: 28 or 29 (antibody, V domains shown, VH; VL) VH: QVQLVESGGGSVQPGRSLRLSCAASGFTFSNYAMNWVRQAPGKGLEWVAIINVGGGTNYADSVKGRFTISRDNSKNTLYLQMNSLRAEDTASYYCARAVGYHHARLDPWGCGTSVTVSS VL: QLVLTQSPSASASLGASVKLTCTLSSAHKTYTIDWYQQQPEKCPRYLMQLKSDGSYTKGSGIPDRFSGSSSGAERYLTISSLQSEDEADYYCGTEGVGGYVFGGGTKLTVLG | – | 0.05 nM | 0.05 nM | 1.2e-05 s⁻¹ | 250000 M⁻¹ s⁻¹ | 0.11 D % | 1.59 D % | 360 nM | 69 nM | – | 0.022 nM | 0.022 nM | 5.5e-06 s⁻¹ | 250000 M⁻¹ s⁻¹ | 71 nM

— US12344663B2, “Anti-C3 antibodies and antigen-binding fragments thereof and their uses for treating eye or ocular diseases” (CDR-Life AG, priority 2021, dated 2025)
